Data taken from article PMC7583038.

Experiments:
[1] = target: wild-type eel follicle-stimulating hormone receptor (eel)
[2] = target: wild-type eel follicle-stimulating hormone receptor (eel); remark: listed apart in the source

- EC50 of the rec-eelFSH-stimulated cAMP response (HTRF) in transfected CHO-K1 cells, 30 min (eelFSHR-D540G (eel)): 0.359 mg/L
- EC50 of the rec-eelFSH-stimulated cAMP response (HTRF) in transfected CHO-K1 cells, 30 min (eelFSHR-D540N (eel)): 0.544 mg/L
- EC50 of the rec-eelFSH-stimulated cAMP response (HTRF) in transfected CHO-K1 cells, 30 min [1]: 0.524 mg/L
- EC50 of the rec-eelFSH-stimulated cAMP response (HTRF) in transfected CHO-K1 cells, 30 min (eelFSHR-R546C (eel)): 0.385 mg/L
- EC50 of the rec-eelFSH-stimulated cAMP response (HTRF) in transfected CHO-K1 cells, 30 min (series with the inactivating mutants) [2]: 0.314 mg/L
Substance: recombinant eel follicle-stimulating hormone (ligand)
